# Patent publication US20110251266A1
# Target: Human NGF (manufactured by R&D Systems) (human) (UniProt P01138)
# Test: cell-based or functional assay
# Chain of Human NGF (manufactured by R&D Systems) (human) (P01138 122-241 limits assumed): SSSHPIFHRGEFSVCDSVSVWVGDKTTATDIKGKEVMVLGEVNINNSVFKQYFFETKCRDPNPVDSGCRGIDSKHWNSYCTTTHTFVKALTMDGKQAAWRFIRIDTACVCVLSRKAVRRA
substance,measurement,value
"anti-NGF antibody (MAB2561, R&D Systems)",inhibitory activity (neurite outgrowth of PC-12 cells),> 50%
